Experimental data taken from the RNAGym collection of RNA variant scans (doi:10.1093/molbev/msab373).

B1: Azoarcus group I ribozyme (parent)
chain: GUGCCUUGCGCCGGGAAACCACGCAAGGGAUGGUGUCAAAUUCGGCGAAACCUAAGCGCCCGCCCGGGCGUAUGGCAACGCCGAGCCAAGCUUCGGCGCCUGCGCCGAUGAAGGUGUAGAGACUAGACGGCACCCACCUAAGGCAAACGCUAUGGUGAAGGCAUAGUCCAGGGAGUGGCGAAAGUCACACAAACCGG

Variants of: B1
Test: reverse-splicing fitness (ratio to wild type); higher = more active; in vitro selection; Mg2+ level not given
Procedure, shortened: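 An in vitro group I ribozyme library with randomized positions was T7-transcribed and gel-purified. In triplicate, 10 pmol RNA in EPPS pH 7.5 was reacted with 50 pmoles of a 30-nt RNA substrate for 1 h at 37 °C across several added MgCl2 levels (1–48 mM), then stopped with EDTA. Products were reverse transcribed from a substrate-complementary primer, PCR-amplified and sequenced (HiSeq 4000). Fitness is a variant's read proportion after selection over that before, normalised to wild type.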

| Variant | reverse-splicing fitness |
| --- | --- |
| GUGCCUUGCGCCGGGAAACCACGCAAGGGAUGGUGUCAAAUUCGGCGAAACCUAAGCGCCCGCCCGGGCGUAUGGCAACGCCGAGCCAAGCUUCGGCGCCUGCGCCGAUGGAGGUGUAGUGACUAGACGGCACCCACCUAAGGCUAACGAUAUGGUGAAGGCAUAGUCGAGGGAGUGGCGAAAGUCACACAAACCGG [A111G A120U A145U C150A C169G] | 0.00763 |
| GUGCCUUGCGCCGGGAAACCACGCAAGGGAUGGUGUCAAAUUCGGCGAAACCUAAGCGCCCGCCCGGGCGUAUGGCAACGCCGAGCCAAGCUUCGGCGCCUGCGCCGAUGGAGGUGUAGUGACUAGACGGCACCCACCUAAGGCUAACGAUAUGGUGAAGGCAUAGUCAAGGGAGUGGCGAAAGUCACACAAACCGG [A111G A120U A145U C150A C169A] | 0.00222 |
| GUGCCUUGCGCCGGGAAACCACGCAAGGGAUGGUGUCAAAUUCGGCGAAACCUAAGCGCCCGCCCGGGCGUAUGGCAACGCCGAGCCAAGCUUCGGCGCCUGCGCCGAUGGAGGUGUAGUGACUAGACGGCACCCACCUAAGGCUAACGAUAUGGUGAAGGCAUAGUCUAGGGAGUGGCGAAAGUCACACAAACCGG [A111G A120U A145U C150A C169U] | 0.0112 |
| GUGCCUUGCGCCGGGAAACCACGCAAGGGAUGGUGUCAAAUUCGGCGAAACCUAAGCGCCCGCCCGGGCGUAUGGCAACGCCGAGCCAAGCUUCGGCGCCUGCGCCGAUGGAGGUGUAGUGACUAGACGGCACCCACCUAAGGCUAACGCUAUGGUGAAGGCAUAGUCCAGGGAGUGGCGAAAGUCACACAAACCGG [A111G A120U A145U] | 0.759 |
| GUGCCUUGCGCCGGGAAACCACGCAAGGGAUGGUGUCAAAUUCGGCGAAACCUAAGCGCCCGCCCGGGCGUAUGGCAACGCCGAGCCAAGCUUCGGCGCCUGCGCCGAUGGAGGUGUAGUGACUAGACGGCACCCACCUAAGGCGAACGCUAUGGUGAAGGCAUAGUCGAGGGAGCGGCGAAAGUCACACAAACCGG [A111G A120U A145G C169G U176C] | 0.0201 |
| GUGCCUUGCGCCGGGAAACCACGCAAGGGAUGGUGUCAAAUUCGGCGAAACCUAAGCGCCCGCCCGGGCGUAUGGCAACGCCGAGCCAAGCUUCGGCGCCUGCGCCGAUGGAGGUGUAGUGACUAGACGGCACCCACCUAAGGCGAACGCUAUGGUGAAGGCAUAGUCGAGGGAGGGGCGAAAGUCACACAAACCGG [A111G A120U A145G C169G U176G] | 0.00189 |
| GUGCCUUGCGCCGGGAAACCACGCAAGGGAUGGUGUCAAAUUCGGCGAAACCUAAGCGCCCGCCCGGGCGUAUGGCAACGCCGAGCCAAGCUUCGGCGCCUGCGCCGAUGGAGGUGUAGUGACUAGACGGCACCCACCUAAGGCGAACGCUAUGGUGAAGGCAUAGUCGAGGGAGAGGCGAAAGUCACACAAACCGG [A111G A120U A145G C169G U176A] | 0.00934 |
| GUGCCUUGCGCCGGGAAACCACGCAAGGGAUGGUGUCAAAUUCGGCGAAACCUAAGCGCCCGCCCGGGCGUAUGGCAACGCCGAGCCAAGCUUCGGCGCCUGCGCCGAUGGAGGUGUAGUGACUAGACGGCACCCACCUAAGGCUAACGAUAUGGUGAAGGCAUAGUCGAGGGAGAGGCGAAAGUCACACAAACCGG [A111G A120U A145U C150A C169G U176A] | 0.00286 |
| GUGCCUUGCGCCGGGAAACCACGCAAGGGAUGGUGUCAAAUUCGGCGAAACCUAAGCGCCCGCCCGGGCGUAUGGCAACGCCGAGCCAAGCUUCGGCGCCUGCGCCGAUGGAGGUGUAGUGACUAGACGGCACCCACCUAAGGCUAACGAUAUGGUGAAGGCAUAGUCGAGGGAGGGGCGAAAGUCACACAAACCGG [A111G A120U A145U C150A C169G U176G] | 0.00159 |
| GUGCCUUGCGCCGGGAAACCACGCAAGGGAUGGUGUCAAAUUCGGCGAAACCUAAGCGCCCGCCCGGGCGUAUGGCAACGCCGAGCCAAGCUUCGGCGCCUGCGCCGAUGGAGGUGUAGUGACUAGACGGCACCCACCUAAGGCUAACGAUAUGGUGAAGGCAUAGUCGAGGGAGCGGCGAAAGUCACACAAACCGG [A111G A120U A145U C150A C169G U176C] | 0.00285 |
| GUGCCUUGCGCCGGGAAACCACGCAAGGGAUGGUGUCAAAUUCGGCGAAACCUAAGCGCCCGCCCGGGCGUAUGGCAACGCCGAGCCAAGCUUCGGCGCCUGCGCCGAUGGAGGUGUAGUGACUAGACGGCACCCACCUAAGGCUAACGAUAUGGUGAAGGCAUAGUCUAGGGAGGGGCGAAAGUCACACAAACCGG [A111G A120U A145U C150A C169U U176G] | 0.00172 |
| GUGCCUUGCGCCGGGAAACCACGCAAGGGAUGGUGUCAAAUUCGGCGAAACCUAAGCGCCCGCCCGGGCGUAUGGCAACGCCGAGCCAAGCUUCGGCGCCUGCGCCGAUGGAGGUGUAGUGACUAGACGGCACCCACCUAAGGCUAACGAUAUGGUGAAGGCAUAGUCUAGGGAGAGGCGAAAGUCACACAAACCGG [A111G A120U A145U C150A C169U U176A] | 0.00329 |
| GUGCCUUGCGCCGGGAAACCACGCAAGGGAUGGUGUCAAAUUCGGCGAAACCUAAGCGCCCGCCCGGGCGUAUGGCAACGCCGAGCCAAGCUUCGGCGCCUGCGCCGAUGGAGGUGUAGUGACUAGACGGCACCCACCUAAGGCUAACGAUAUGGUGAAGGCAUAGUCUAGGGAGCGGCGAAAGUCACACAAACCGG [A111G A120U A145U C150A C169U U176C] | 0.00339 |
| GUGCCUUGCGCCGGGAAACCACGCAAGGGAUGGUGUCAAAUUCGGCGAAACCUAAGCGCCCGCCCGGGCGUAUGGCAACGCCGAGCCAAGCUUCGGCGCCUGCGCCGAUGGAGGUGUAGUGACUAGACGGCACCCACCUAAGGCUAACGAUAUGGUGAAGGCAUAGUCCAGGGAGUGGCGAAAGUCACACAAACCGG [A111G A120U A145U C150A] | 0.0903 |
| GUGCCUUGCGCCGGGAAACCACGCAAGGGAUGGUGUCAAAUUCGGCGAAACCUAAGCGCCCGCCCGGGCGUAUGGCAACGCCGAGCCAAGCUUCGGCGCCUGCGCCGAUGGAGGUGUAGUGACUAGACGGCACCCACCUAAGGCGAACGCUAUGGUGAAGGCAUAGUCUAGGGAGAGGCGAAAGUCACACAAACCGG [A111G A120U A145G C169U U176A] | 0.0227 |
